Experiments:
Test in all cases: Kinase Profiling Assay
Format in all cases: biochemical
Settings in all cases: 100 μM
Tie2(Y897S) (h) = Tie2(Y897S) (h) (Homo sapiens, UniProt Q02763, Y897S)
Procedure, shortened: (§1)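 Scintillation counting quantifies radiolabeled, positively charged substrate retained on a negatively charged filter after kinase reaction with labeled ATP; inhibitor peptide present.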

IKKα (h) = biological target: T1, IKKα (h) (Homo sapiens, UniProt O15111)
T1 construct: purchased Millipore
T1 sequence (O15111 1-745): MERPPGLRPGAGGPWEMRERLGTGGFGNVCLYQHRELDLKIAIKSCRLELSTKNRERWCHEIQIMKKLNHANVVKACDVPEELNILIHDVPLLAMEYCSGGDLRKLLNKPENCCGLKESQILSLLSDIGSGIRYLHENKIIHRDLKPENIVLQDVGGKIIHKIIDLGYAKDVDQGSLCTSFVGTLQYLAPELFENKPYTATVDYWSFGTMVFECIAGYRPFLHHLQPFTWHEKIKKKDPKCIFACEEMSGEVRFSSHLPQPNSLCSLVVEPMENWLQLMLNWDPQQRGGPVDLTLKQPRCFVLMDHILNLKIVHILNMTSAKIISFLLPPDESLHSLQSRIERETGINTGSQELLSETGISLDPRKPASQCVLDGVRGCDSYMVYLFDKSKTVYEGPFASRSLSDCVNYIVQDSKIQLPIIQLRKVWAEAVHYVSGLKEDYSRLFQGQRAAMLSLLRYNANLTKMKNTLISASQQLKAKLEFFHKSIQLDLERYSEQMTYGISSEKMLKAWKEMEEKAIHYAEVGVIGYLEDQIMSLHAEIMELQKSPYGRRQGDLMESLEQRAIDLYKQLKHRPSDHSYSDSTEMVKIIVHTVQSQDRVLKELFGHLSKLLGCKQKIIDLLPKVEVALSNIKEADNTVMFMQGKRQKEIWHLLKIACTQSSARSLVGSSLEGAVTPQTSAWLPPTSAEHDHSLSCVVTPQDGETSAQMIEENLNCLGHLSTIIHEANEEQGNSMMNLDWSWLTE
Procedure, shortened: as §1

BRK (h) = BRK (h) (Homo sapiens, UniProt Q13882)
Chain of BRK (h) (Q13882 whole entry): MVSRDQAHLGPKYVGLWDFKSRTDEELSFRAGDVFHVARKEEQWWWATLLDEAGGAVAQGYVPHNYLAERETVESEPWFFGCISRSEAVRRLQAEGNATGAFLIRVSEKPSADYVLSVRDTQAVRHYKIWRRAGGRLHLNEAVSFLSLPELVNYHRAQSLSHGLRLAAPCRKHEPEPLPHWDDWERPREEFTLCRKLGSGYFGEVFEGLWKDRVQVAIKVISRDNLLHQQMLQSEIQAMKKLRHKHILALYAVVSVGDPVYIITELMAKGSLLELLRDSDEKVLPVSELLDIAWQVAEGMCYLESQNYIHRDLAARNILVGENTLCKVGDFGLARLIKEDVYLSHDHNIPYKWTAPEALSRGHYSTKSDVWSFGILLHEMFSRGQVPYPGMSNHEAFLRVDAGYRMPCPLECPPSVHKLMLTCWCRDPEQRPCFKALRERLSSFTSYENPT
Procedure, shortened: as §1

MAPK2 (h) = MAPK2 (h) (Homo sapiens, UniProt P28482)
Chain of MAPK2 (h) (P28482 whole entry): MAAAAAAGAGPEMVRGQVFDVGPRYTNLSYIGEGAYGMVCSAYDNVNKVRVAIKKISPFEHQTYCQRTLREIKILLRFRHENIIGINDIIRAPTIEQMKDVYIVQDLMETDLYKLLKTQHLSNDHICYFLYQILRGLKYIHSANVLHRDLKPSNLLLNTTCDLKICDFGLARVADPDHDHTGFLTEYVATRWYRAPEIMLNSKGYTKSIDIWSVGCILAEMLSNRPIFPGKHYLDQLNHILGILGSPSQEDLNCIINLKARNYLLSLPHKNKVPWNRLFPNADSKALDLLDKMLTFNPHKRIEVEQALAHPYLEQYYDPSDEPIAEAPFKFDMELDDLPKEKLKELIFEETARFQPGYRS
Procedure, shortened: as §1

ALK4 (h) = biological target: T2, ALK4 (h) (Homo sapiens, UniProt P36896)
T2 sequence (P36896 24-505): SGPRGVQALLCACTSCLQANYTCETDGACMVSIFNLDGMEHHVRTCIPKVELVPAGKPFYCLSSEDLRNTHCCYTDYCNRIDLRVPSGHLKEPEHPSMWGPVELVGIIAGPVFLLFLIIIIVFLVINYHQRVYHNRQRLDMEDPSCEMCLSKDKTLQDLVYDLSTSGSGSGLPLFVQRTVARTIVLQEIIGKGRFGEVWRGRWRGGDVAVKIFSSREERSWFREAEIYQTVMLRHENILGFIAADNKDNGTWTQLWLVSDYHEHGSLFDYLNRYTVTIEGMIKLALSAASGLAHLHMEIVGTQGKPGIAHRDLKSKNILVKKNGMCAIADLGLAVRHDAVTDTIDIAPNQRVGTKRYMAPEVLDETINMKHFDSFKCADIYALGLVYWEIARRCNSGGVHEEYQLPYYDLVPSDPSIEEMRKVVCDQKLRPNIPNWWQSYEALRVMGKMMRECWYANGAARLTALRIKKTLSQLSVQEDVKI
Procedure, shortened: as §1

TAO3 (h) = biological target: T3, TAO3 (h) (Homo sapiens, UniProt Q9H2K8)
T3 sequence (Q9H2K8 1-898): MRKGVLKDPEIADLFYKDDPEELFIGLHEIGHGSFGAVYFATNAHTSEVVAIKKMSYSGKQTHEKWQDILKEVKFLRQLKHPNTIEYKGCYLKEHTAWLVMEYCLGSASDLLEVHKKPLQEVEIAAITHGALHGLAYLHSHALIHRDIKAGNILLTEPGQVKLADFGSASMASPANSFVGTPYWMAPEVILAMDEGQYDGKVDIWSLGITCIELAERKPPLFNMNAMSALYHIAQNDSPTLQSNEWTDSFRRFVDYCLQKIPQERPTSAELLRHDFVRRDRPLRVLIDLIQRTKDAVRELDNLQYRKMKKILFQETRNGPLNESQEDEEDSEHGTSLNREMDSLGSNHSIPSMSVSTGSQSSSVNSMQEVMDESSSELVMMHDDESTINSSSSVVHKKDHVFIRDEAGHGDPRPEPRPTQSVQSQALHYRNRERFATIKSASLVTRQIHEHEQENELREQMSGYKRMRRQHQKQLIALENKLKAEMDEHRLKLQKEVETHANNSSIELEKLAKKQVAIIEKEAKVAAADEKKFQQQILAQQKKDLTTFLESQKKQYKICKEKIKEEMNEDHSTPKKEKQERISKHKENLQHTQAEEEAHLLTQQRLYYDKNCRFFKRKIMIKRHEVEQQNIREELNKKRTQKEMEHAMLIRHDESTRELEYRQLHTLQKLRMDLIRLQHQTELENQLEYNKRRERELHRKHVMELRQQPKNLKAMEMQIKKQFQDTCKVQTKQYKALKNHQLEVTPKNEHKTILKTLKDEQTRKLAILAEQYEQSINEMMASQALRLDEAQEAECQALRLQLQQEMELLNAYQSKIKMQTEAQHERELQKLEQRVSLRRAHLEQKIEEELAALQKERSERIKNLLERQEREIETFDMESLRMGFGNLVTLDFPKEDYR
Procedure, shortened: as §1

PrKX (h) = biological target: T4, PrKX (h) (Homo sapiens, UniProt P51817)
T4 sequence (P51817 1-358): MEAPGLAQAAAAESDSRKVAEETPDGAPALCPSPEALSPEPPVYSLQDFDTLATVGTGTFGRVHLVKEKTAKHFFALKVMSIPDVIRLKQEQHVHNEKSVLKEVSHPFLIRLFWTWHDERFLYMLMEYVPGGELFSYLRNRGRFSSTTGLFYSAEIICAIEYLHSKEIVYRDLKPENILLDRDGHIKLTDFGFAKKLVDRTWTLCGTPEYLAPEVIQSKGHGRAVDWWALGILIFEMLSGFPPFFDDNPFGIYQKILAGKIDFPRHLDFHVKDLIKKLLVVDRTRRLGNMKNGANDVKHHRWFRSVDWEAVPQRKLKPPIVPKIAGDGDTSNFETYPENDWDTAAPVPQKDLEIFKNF
Procedure, shortened: as §1

Chain of Tie2(Y897S) (h) (Q02763 23-1124 Y897S): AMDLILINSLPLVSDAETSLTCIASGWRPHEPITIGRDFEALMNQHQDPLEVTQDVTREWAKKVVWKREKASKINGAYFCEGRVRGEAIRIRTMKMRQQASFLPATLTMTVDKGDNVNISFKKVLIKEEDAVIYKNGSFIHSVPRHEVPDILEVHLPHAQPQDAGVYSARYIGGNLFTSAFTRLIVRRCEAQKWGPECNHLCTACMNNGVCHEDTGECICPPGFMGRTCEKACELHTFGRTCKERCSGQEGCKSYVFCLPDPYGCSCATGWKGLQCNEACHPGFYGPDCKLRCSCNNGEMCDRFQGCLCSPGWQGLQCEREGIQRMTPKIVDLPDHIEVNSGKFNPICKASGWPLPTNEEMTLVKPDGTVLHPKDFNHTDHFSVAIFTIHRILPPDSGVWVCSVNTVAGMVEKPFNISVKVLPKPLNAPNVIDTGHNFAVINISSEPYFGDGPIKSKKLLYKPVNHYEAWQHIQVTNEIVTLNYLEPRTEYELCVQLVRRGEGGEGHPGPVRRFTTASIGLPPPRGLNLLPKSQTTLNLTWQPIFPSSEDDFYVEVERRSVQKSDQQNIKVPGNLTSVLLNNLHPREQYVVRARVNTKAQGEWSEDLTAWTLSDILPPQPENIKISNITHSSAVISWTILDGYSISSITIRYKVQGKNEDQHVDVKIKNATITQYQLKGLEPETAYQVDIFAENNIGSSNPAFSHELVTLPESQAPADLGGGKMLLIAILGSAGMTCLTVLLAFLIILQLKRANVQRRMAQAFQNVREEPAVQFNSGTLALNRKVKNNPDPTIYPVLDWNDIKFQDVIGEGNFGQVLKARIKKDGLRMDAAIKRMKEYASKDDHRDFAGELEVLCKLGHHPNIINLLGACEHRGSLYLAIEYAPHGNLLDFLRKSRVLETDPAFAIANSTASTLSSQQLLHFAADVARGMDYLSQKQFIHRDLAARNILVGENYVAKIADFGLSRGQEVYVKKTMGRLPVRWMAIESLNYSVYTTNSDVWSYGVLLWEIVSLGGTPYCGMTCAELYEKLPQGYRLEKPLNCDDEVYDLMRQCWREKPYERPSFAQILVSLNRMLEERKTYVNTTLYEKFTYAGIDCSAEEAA

Sequence	% activity (Tie2(Y897S) (h))	% activity (IKKα (h))	% activity (BRK (h))	% activity (MAPK2 (h))	% activity (ALK4 (h))	% activity (TAO3 (h))	% activity (PrKX (h))
FAKLAARLYRKALARQLGVAA [MMI-0300]	83%	93%	35%	98%	140%	77%	61%
HRRIKAWLKKIKALARQLGVAA (Mammalian) [MMI-0500]	80%	50%	41%	60%	81%	12%	57%
KAFAKLAARLYRKALARQLGVAA [MMI-0400]	87%	87%	18%	93%	130%	67%	76%
YARAAARQARAKALNRQLGVA (Mammalian) [MMI-0200]	85%	–	127%	–	152%	–	–

Source: patent publication US10500249B2, “Compositions and methods for preventing or treating diseases, conditions, or processes characterized by aberrant fibroblast proliferation and extracellular matrix deposition” (MOERAE MATRIX, INC., priority 2014, dated 2019)
